Test results published in US20220298260A1 (MYTHIC THERAPEUTICS, published 2022).
Where a chain is given by its changes, count along the chain named.

B1: MYT0621 (antibody, V domains shown)
VH: QVQLVQSGAEVVKPGASVKISCKASGYTFTGYFMNWVKQSPGQSLEWIGRIHPYDGDTFYHQKFQGKATLTVDKSSNTAHMELLSLTSEDFAVYYCTRYDGSRAMDYWGQGTTVTVSS
VL: DIVLTQSPLSLAVSLGQPAIISCKASQSVSFAGTSLMHWYHQKPGQQPRLLIYRASNLEAGVPDRFSGSGSKTDFTLTISPVEAEDAATYYCQQSREYPYTFGGGTKLEIK
notes: IgG
B2: MYT1580 (antibody, V domains shown)
VH: B1 VH with H61N
VL: B1 VL with A60H
notes: IgG
B3: MYT1578 (antibody, V domains shown)
VH: B1 VH with H61N
VL: B1 VL with L58H
notes: IgG
B4: MYT1561 (antibody, V domains shown)
VH: B1 VH with H61N
VL: B1 VL with S26H
notes: IgG
B5: MYT0622 (antibody, V domains shown)
VH: B1 VH with H61N, Q62H
VL: B1 VL
notes: IgG
B6: MYT0635 (antibody, V domains shown)
VH: B1 VH with H61N, M105H
VL: B1 VL
notes: IgG
B7: MYT1577 (antibody, V domains shown)
VH: B1 VH with H61N
VL: B1 VL with N57H
notes: IgG
B8: MYT0625 (antibody, V domains shown)
VH: B1 VH with H61N, Q65H
VL: B1 VL
notes: IgG
B9: MYT1563 (antibody, V domains shown)
VH: B1 VH with H61N
VL: B1 VL with S28H
notes: IgG
B10: MYT0627 (antibody, V domains shown)
VH: B1 VH with H61N, T97H
VL: B1 VL
notes: IgG
B11: MYT1567 (antibody, V domains shown)
VH: B1 VH with H61N
VL: B1 VL with A32H
notes: IgG
B12: MYT1575 (antibody, V domains shown)
VH: B1 VH with H61N
VL: B1 VL with A55H
notes: IgG
B13: MYT0632 (antibody, V domains shown)
VH: B1 VH with H61N, S102H
VL: B1 VL
notes: IgG
B14: MYT0623 (antibody, V domains shown)
VH: B1 VH with H61N, K63H
VL: B1 VL
notes: IgG
B15: MYT1569 (antibody, V domains shown)
VH: B1 VH with H61N
VL: B1 VL with T34H
notes: IgG
B16: MYT1582 (antibody, V domains shown)
VH: B1 VH with H61N
VL: B1 VL with Q94H
notes: IgG
B17: MYT1583 (antibody, V domains shown)
VH: B1 VH with H61N
VL: B1 VL with S95H
notes: IgG
B18: MYT1571 (antibody, V domains shown)
VH: B1 VH with H61N
VL: B1 VL with L36H
notes: IgG
B19: MYT1581 (antibody, V domains shown)
VH: B1 VH with H61N
VL: B1 VL with Q93H
notes: IgG
B20: MYT1585 (antibody, V domains shown)
VH: B1 VH with H61N
VL: B1 VL with E97H
notes: IgG
B21: MYT0637 (antibody, V domains shown)
VH: B1 VH with H61N, Y107H
VL: B1 VL
notes: IgG
B22: MYT1576 (antibody, V domains shown)
VH: B1 VH with H61N
VL: B1 VL with S56H
notes: IgG
B23: MYT1559 (antibody, V domains shown)
VH: B1 VH with H61N
VL: B1 VL with K24H
notes: IgG
B24: MYT1586 (antibody, V domains shown)
VH: B1 VH with H61N
VL: B1 VL with Y98H
notes: IgG
B25: MYT1160 (antibody, V domains shown)
VH: B1 VH with Y27H, T58H, F59H, H61N
VL: B1 VL
notes: IgG
B26: MYT1562 (antibody, V domains shown)
VH: B1 VH with H61N
VL: B1 VL with Q27H
notes: IgG
B27: MYT1158 (antibody, V domains shown)
VH: B1 VH with Y27H, Y54H, T58H, H61N
VL: B1 VL
notes: IgG
B28: MYT0624 (antibody, V domains shown)
VH: B1 VH with H61N, F64H
VL: B1 VL
notes: IgG
B29: MYT1584 (antibody, V domains shown)
VH: B1 VH with H61N
VL: B1 VL with R96H
notes: IgG
B30: MYT1155 (antibody, V domains shown)
VH: B1 VH with A24H, Y54H, T58H, H61N
VL: B1 VL
notes: IgG
B31: MYT1568 (antibody, V domains shown)
VH: B1 VH with H61N
VL: B1 VL with G33H
notes: IgG
B32: MYT0629 (antibody, V domains shown)
VH: B1 VH with H61N, Y99H
VL: B1 VL
notes: IgG
B33: MYT1156 (antibody, V domains shown)
VH: B1 VH with A24H, Y54H, F59H, H61N
VL: B1 VL
notes: IgG
B34: MYT0628 (antibody, V domains shown)
VH: B1 VH with H61N, R98H
VL: B1 VL
notes: IgG
B35: MYT1573 (antibody, V domains shown)
VH: B1 VH with H61N
VL: B1 VL with H38A
notes: IgG
B36: MYT1157 (antibody, V domains shown)
VH: B1 VH with A24H, T58H, F59H, H61N
VL: B1 VL
notes: IgG
B37: MYT0633 (antibody, V domains shown)
VH: B1 VH with H61N, R103H
VL: B1 VL
notes: IgG
B38: MYT1570 (antibody, V domains shown)
VH: B1 VH with H61N
VL: B1 VL with S35H
notes: IgG
B39: MYT1579 (antibody, V domains shown)
VH: B1 VH with H61N
VL: B1 VL with E59H
notes: IgG
B40: MYT1565 (antibody, V domains shown)
VH: B1 VH with H61N
VL: B1 VL with S30H
notes: IgG
B41: MYT0626 (antibody, V domains shown)
VH: B1 VH with H61N, G66H
VL: B1 VL
notes: IgG
B42: MYT1574 (antibody, V domains shown)
VH: B1 VH with H61N
VL: B1 VL with R54H
notes: IgG
B43: MYT0636 (antibody, V domains shown)
VH: B1 VH with H61N, D106H
VL: B1 VL
notes: IgG
B44: MYT1566 (antibody, V domains shown)
VH: B1 VH with H61N
VL: B1 VL with F31H
notes: IgG
B45: MYT0630 (antibody, V domains shown)
VH: B1 VH with H61N, D100H
VL: B1 VL
notes: IgG
B46: MYT1159 (antibody, V domains shown)
VH: B1 VH with Y27H, Y54H, F59H, H61N
VL: B1 VL
notes: IgG

Target: T1, FOLR1 (R&D Systems, Cat #5646-FR) (human, UniProt P15328 25-233)
T1 construct: Bought soluble protein; also called Folate Receptor 1
T1 sequence (P15328 25-233 limits assumed): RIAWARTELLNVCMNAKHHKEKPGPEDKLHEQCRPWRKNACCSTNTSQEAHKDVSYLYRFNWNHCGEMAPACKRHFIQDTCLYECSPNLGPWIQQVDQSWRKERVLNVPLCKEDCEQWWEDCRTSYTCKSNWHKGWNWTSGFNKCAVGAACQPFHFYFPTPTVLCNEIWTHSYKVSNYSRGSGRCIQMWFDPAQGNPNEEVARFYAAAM
Assay: BLI, IgG on anti-human Fc sensor, 50 nM FOLR1

binding result	Binder
binds	B1
binds	B2
binds	B3
binds	B4
binds	B5
binds	B6
binds	B7
binds	B8
binds	B9
binds	B10
binds	B11
binds	B12
binds	B13
binds	B14
binds	B15
binds	B16
binds	B17
binds	B18
binds	B19
binds	B20
binds	B21
binds	B22
binds	B23

binding result	Binder
binds	B24
binds	B25
binds	B26
binds	B27
binds	B28
binds	B29
binds	B30
binds	B31
binds	B32
binds	B33
binds	B34
binds	B35
binds	B36
binds	B37
binds	B38
binds	B39
binds	B40
binds	B41
binds	B42
binds	B43
binds	B44
binds	B45
binds	B46
